The values below come from patent EP4751739A1, “ANTIBODY-DRUG CONJUGATE TARGETING C-MET AND MEDICAL USE THEREOF” (Jiangsu Hengrui Pharmaceuticals Co., Ltd., priority 2023, dated 2025).

Test [1] relates to human lung cancer EBC-1 cells. As to the kind of experiment: Endocytosis by c-Met-positive cells (flow cytometry). It counts as cell-based. The settings on record: 20 nM. How it is done:
Teli-VcMMAE (namely ABBV-399, in which the toxin is MMAE) and its naked antibody ABT-700 were prepared in-house based on the telisotuzumab vedotin structure disclosed on page 319 of WHO Drug Information, Vol. 30, No. 2, 2016.
The cell density was adjusted to 2 × 10^6 cells/mL using a FACS buffer (prepared with PBS 1×, pH 7.2, and 2% FBS). The suspension was added to a 96-well round-bottom plate at 50 µL/well. Groups were set as follows: endocytosis for 0 h, endocytosis for 0.5 h, endocytosis for 2 h, endocytosis for 4 h, and endocytosis for 24 h. A 40 nM (2×) dilution of an antibody or antibody-drug conjugate was added at 50 µL/well. […] A final concentration of 20 nM was achieved. The plate was incubated at 4 °C for 60 min. After the incubation, the plate was centrifuged at 400 g for 5 min, the supernatant was discarded, and the plate was washed twice with 200 µL of FACS Buffer per well. The cells were resuspended in a culture medium and subjected to 0 h, 0.5 h, 2 h, 4 h, or 24 h of endocytosis in an incubator (37 °C, 5% CO2). After different endocytosis periods, the cells were digested with TrypLE™ Express Enzyme to form a single cell suspension. After 1 wash with 200 µL of FACS buffer, a secondary antibody (Alexa Fluor® 647 AffiniPure Mouse Anti-Human IgG(H+L), 1:500, Jackson, 209-605-008) diluted in FACS buffer was added, and the plate was incubated in a dark place at 4 °C for 30 min. The plate was centrifuged at 400 g for 5 min, the supernatant was discarded, and the plate was washed twice with 200 µL of FACS buffer per well. The cells were resuspended in 50 µL of FACS buffer, and 50 µL of 4% paraformaldehyde was then added for fixation. After thorough mixing, the plate was left to stand at 4 °C in a dark place. After all samples were collected, Alexa Fluor® 647 fluorescence signals were detected using a flow cytometer. Data were analyzed using Flowjo software, and gMFI values were calculated. Endocytosis ratio = (0-h endocytosis gMFI - n-h endocytosis gMFI)/0-h endocytosis gMFI. Table 4. Evaluation of endocytosis performance

The test system of test [2] is human gastric cancer MKN-45 nude mouse subcutaneous xenograft tumor model. As to the kind of experiment: In vivo efficacy, MKN-45 xenograft tumor model. The arrangement: species or system Balb/c Nude mice. As to conditions: 3 mg/kg single i.p. (D0). How it is done: Female Balb/c Nude mice were subcutaneously inoculated with 5 × 10^6 MKN-45 cells to establish a subcutaneous tumor model. […] Each group was given a single (D0) intraperitoneal injection. The body weight and tumor size of the animals were measured twice weekly during the experiment.

B1: Teli-VcMMAE: ABBV-399, in which the toxin is MMAE; prepared in-house based on the telisotuzumab vedotin structure (conjugate, chains of the INN, looked up)
VH: QVQLVQSGAEVKKPGASVKVSCKASGYIFTAYTMHWVRQAPGQGLEWMGWIKPNNGLANYAQKFQGRVTMTRDTSISTAYMELSRLRSDDTAVYYCARSEITTEFDYWGQGTLVTVSS
VL: DIVMTQSPDSLAVSLGERATINCKSSESVDSYANSFLHWYQQKPGQPPKLLIYRASTRESGVPDRFSGSGSGTDFTLTISSLQAEDVAVYYCQQSKEDPLTFGGGTKVEIK
modifications: vc-MMAE payload
notes: ABBV-399, in which the toxin is MMAE; prepared in-house based on the telisotuzumab vedotin structure
B1: the Endocytosis ratio% in test [1] (0 h) is listed as 0.000%; in test [1] (0.5 h), 4.361%; in test [1] (2 h), 31.734%; in test [1] (24 h), 97.339%. The “Mean tumor volume (mm^3, mean ± SEM) D0” value in test [2] (D0 (baseline at grouping)) is listed as 117± 3 mm^3. Also, the “Mean tumor volume (mm^3, mean ± SEM) D23” value in test [2] (D23) was 1354 ± 327 mm^3. The “TGI (%) D23” value in test [2] (D23) was found to be 40.28%.
